These results are taken from doi:10.1101/2020.06.02.129890 (bioRxiv, 2020).

The test has as its target Rhodopsin (endogenous in mouse retina) (mouse (endogenous in retina), UniProt P15409 1-348). Nature of the test: far-Western, overlay or dot blot.

B1: GFP-MYO1C-790-1028 (MYO1C tail domain, also known as the cargo domain) (domain or fragment, mouse, UniProt Q9WTI7-2 790-1028, looked up)
chain: PRNVLDTSWPTPPPALREASELLRELCMKNMVWKYCRSISPEWKQQLQQKAVASEIFKGKKDNYPQSVPRLFISTRLGTEEISPRVLQSLGSEPIQYAVPVVKYDRKGYKPRPRQLLLTPSAVVIVEDAKVKQRIDYANLTGISVSSLSDSLFVLHVQREDNKQKGDVVLQSDHVIETLTKTALSADRVNNININQGSITFAGGPGRDGIIDFTSGSELLITKAKNGHLAVVAPRLNSR
Regarding B1, the binding result was “binds”.
